Some targets named below: human KOR R170A (human) (UniProt P41145); human KOR R257A (human) (UniProt P41145); human KOR L253A (human) (UniProt P41145); human KOR D155A (human) (UniProt P41145).

Chain of GαoB fused with Renilla luciferase (Gα-RLuc8) (P09471 other isoform, or with tags, fused parts or gaps): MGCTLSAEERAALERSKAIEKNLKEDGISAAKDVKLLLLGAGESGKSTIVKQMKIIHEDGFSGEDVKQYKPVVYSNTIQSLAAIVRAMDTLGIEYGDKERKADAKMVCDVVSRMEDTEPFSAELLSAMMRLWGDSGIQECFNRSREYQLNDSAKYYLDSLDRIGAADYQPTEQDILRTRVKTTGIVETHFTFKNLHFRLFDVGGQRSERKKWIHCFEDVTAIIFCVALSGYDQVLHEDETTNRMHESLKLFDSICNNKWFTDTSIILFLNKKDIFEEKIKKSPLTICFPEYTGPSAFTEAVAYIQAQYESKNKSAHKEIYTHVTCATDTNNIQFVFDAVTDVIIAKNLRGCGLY
Chain of Gαz fused with Renilla luciferase (Gα-RLuc8) (P19086 whole entry, the tested form may be a part): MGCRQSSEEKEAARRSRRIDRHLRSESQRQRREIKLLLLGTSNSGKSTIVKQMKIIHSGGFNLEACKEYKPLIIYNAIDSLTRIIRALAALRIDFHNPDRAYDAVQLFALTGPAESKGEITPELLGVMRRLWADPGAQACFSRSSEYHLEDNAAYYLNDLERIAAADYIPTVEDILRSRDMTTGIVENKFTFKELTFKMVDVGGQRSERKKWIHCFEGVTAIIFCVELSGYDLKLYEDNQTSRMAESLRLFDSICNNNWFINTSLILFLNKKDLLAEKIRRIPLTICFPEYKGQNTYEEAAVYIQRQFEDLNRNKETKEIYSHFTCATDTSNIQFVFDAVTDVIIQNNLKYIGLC
Chain of Gαi3 fused with Renilla luciferase (Gα-RLuc8) (P08754 whole entry, the tested form may be a part): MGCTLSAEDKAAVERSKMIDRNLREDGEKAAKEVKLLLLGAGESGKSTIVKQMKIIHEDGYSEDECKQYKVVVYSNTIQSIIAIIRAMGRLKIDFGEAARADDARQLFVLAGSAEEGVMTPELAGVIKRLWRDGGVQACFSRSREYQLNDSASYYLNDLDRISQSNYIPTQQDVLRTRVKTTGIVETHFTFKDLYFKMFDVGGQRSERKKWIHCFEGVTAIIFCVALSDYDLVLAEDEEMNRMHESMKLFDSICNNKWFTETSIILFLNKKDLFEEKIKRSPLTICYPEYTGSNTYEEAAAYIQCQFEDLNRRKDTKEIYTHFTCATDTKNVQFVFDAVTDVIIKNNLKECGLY
Chain of GαoA fused with Renilla luciferase (Gα-RLuc8) (P09471 whole entry, the tested form may be a part): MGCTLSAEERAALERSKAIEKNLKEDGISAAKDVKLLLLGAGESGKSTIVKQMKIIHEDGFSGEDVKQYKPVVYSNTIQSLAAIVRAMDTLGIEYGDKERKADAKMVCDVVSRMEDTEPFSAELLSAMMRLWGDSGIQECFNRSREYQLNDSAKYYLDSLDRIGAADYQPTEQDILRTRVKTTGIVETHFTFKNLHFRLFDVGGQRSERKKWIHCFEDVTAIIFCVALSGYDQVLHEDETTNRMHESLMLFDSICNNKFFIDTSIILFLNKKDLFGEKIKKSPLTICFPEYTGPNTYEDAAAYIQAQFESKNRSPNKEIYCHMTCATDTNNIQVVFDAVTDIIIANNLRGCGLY
Chain of Gαi2 fused with Renilla luciferase (Gα-RLuc8) (P04899 whole entry, the tested form may be a part): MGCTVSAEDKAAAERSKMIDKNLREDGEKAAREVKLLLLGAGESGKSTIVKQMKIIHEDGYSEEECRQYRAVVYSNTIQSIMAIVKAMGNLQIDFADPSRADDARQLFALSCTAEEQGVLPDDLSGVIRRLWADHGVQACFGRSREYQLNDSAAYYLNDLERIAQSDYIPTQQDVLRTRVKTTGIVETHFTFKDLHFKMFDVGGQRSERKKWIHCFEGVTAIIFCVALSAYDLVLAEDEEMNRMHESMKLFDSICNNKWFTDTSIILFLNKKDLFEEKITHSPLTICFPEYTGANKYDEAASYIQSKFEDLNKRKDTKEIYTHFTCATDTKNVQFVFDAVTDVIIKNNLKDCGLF
Chain of Gα gustducin fused with Renilla luciferase (Gα-RLuc8) (A8MTJ3 whole entry, the tested form may be a part): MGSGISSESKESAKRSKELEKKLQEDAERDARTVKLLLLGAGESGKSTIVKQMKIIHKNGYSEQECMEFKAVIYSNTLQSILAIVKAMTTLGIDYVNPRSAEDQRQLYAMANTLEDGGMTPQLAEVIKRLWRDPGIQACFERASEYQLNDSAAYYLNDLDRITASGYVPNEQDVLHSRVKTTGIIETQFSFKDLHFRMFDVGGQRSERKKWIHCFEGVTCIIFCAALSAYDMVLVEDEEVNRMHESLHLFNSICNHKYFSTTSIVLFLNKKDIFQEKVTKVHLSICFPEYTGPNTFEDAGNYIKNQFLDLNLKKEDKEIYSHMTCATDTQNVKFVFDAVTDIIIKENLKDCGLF

Turning to “GαoA fused with Renilla luciferase (Gα-RLuc8) (from UniProt P09471 1-354) (natural protein)”, the results for the BRET2 G protein activation (TRUPATH); fold decrease of the potency of nalfurafine against wild-type KOR with human KOR R170A (human) and with human KOR D155A (human) were 10 fold and < 10 fold, respectively. In addition, the BRET2 G protein activation (TRUPATH) with nalfurafine; fold decrease against wild-type KOR with human KOR R257A (human) and with human KOR L253A (human) was 10 fold in each case.

Take “GαoB fused with Renilla luciferase (Gα-RLuc8) (from UniProt P09471-2 1-354) (natural protein)”: the BRET2 G protein activation (TRUPATH); fold decrease of the potency of nalfurafine against wild-type KOR was 10 fold with human KOR R170A (human) and < 10 fold with human KOR D155A (human). The BRET2 G protein activation (TRUPATH) with nalfurafine; fold decrease against wild-type KOR in the assay with human KOR R257A (human) and in the assay with human KOR L253A (human) was 10 fold each time.

For the substance “Gαi2 fused with Renilla luciferase (Gα-RLuc8) (from UniProt P04899 1-355) (natural protein)”, the BRET2 G protein activation (TRUPATH); fold decrease of the potency of nalfurafine against wild-type KOR with human KOR R170A (human) is 100 fold; in the assay with human KOR D155A (human) it was < 10 fold. The BRET2 G protein activation (TRUPATH) with nalfurafine; fold decrease against wild-type KOR in the assay with human KOR R257A (human) and with human KOR L253A (human) was 100 fold in each case.

Regarding “Gαi3 fused with Renilla luciferase (Gα-RLuc8) (from UniProt P08754 1-354) (natural protein)”, the BRET2 G protein activation (TRUPATH); fold decrease of the potency of nalfurafine against wild-type KOR with human KOR R170A (human) was 100 fold; with human KOR D155A (human), < 10 fold. Further, the BRET2 G protein activation (TRUPATH) with nalfurafine; fold decrease against wild-type KOR in the assay with human KOR R257A (human) and with human KOR L253A (human) was 100 fold each time.

With “Gα gustducin fused with Renilla luciferase (Gα-RLuc8) (from UniProt A8MTJ3 1-354) (natural protein)”, the BRET2 G protein activation (TRUPATH); fold decrease of the potency of nalfurafine against wild-type KOR with human KOR R170A (human) is 10 fold; with human KOR D155A (human) it was < 10 fold. Further, the BRET2 G protein activation (TRUPATH) with nalfurafine; fold decrease against wild-type KOR in the assay with human KOR R257A (human) and with human KOR L253A (human) was 10 fold throughout.

Consider “Gαz fused with Renilla luciferase (Gα-RLuc8) (from UniProt P19086 1-355) (natural protein)”, for which the BRET2 G protein activation (TRUPATH); fold decrease of the potency of nalfurafine against wild-type KOR is 10 fold in the assay with human KOR R170A (human) and < 10 fold with human KOR D155A (human). The BRET2 G protein activation (TRUPATH) with nalfurafine; fold decrease against wild-type KOR in the assay with human KOR R257A (human) and in the assay with human KOR L253A (human) was 10 fold throughout.

The values are drawn from PMC10008561.
